In assay [1] the target is T1, His-tagged human FAP (human, UniProt Q12884 26-760). In words: Octet. In general terms: Biolayer interferometry detects binding as a change in optical thickness at a sensor tip.
Assay [2] addresses T2, Cyno FAP.
T2 chain: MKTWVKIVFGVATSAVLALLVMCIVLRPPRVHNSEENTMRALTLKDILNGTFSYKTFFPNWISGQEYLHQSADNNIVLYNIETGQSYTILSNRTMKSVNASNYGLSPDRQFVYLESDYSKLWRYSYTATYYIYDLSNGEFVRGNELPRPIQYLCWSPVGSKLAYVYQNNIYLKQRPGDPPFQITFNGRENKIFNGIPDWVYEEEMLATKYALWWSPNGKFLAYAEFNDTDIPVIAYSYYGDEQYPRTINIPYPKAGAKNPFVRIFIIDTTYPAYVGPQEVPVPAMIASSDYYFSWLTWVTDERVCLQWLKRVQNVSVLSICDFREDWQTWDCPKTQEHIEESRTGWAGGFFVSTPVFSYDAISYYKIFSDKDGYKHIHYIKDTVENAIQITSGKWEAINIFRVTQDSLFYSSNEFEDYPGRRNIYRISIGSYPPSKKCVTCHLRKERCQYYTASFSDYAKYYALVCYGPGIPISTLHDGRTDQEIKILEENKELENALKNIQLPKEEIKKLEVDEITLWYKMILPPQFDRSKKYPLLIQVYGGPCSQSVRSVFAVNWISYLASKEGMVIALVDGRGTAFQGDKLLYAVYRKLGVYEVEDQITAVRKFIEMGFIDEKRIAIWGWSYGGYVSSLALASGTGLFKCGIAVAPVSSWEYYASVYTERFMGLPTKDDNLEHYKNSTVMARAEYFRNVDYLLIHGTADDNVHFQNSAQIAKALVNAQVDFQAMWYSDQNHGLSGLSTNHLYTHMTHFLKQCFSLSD
In words: Octet.

The target of assay [3] is T1, His-tagged human FAP. Nature of the assay: Octet; apparent KD.
The target in assay [4] is T2, Cyno FAP. In words: Octet; apparent KD.

B1: XENP23930 (29B11, bottle-opener) (antibody)
chain 1: EVQLLESGGGLVQPGGSLRLSCAASGFTFSSYAMSWVRQAPGKGLEWVSAIIGSGGITYYADSVKGRFTISRDNSKNTLYLQMNSLRAEDTAVYYCAKGWFGGFNYWGQGTLVTVSSASTKGPSVFPLAPSSKSTSGGTAALGCLVKDYFPEPVTVSWNSGALTSGVHTFPAVLQSSGLYSLSSVVTVPSSSLGTQTYICNVNHKPSDTKVDKKVEPKSCDKTHTCPPCPAPPVAGPSVFLFPPKPKDTLMISRTPEVTCVVVDVKHEDPEVKFNWYVDGVEVHNAKTKPREEEYNSTYRVVSVLTVLHQDWLNGKEYKCKVSNKALPAPIEKTISKAKGQPREPQVYTLPPSREEMTKNQVSLTCDVSGFYPSDIAVEWESDGQPENNYKTTPPVLDSDGSFFLYSKLTVDKSRWEQGDVFSCSVMHEALHNHYTQKSLSLSPGK
chain 2: not shown
chain 3: EIVLTQSPGTLSLSPGERATLSCRASQSVTSSYLAWYQQKPGQAPRLLINVGSRRATGIPDRFSGSGSGTDFTLTISRLEPEDFAVYYCQQGIMLPPTFGQGTKVEIKRTVAAPSVFIFPPSDEQLKSGTASVVCLLNNFYPREAKVQWKVDNALQSGNSQESVTEQDSKDSTYSLSSTLTLSKADYEKHKVYACEVTHQGLSSPVTKSFNRGEC
As to B1, the Kd with His-tagged human FAP [1] was 0.00482 nM; with Cyno FAP [2], 0.0264 nM.

B2: XENP23934 (3F2, bottle-opener) (antibody)
chain 1: not shown
chain 2: not shown
chain 3: B1 chain 3
As for B2, the Kd with His-tagged human FAP [1] is 5.46 nM; in the assay with Cyno FAP [2], 3.16 nM.

B3: XENP23932 (29B11, central-scFv) (antibody)
chain 1: B1 chain 1
chain 2: EVQLLESGGGLVQPGGSLRLSCAASGFTFSSYAMSWVRQAPGKGLEWVSAIIGSGGITYYADSVKGRFTISRDNSKNTLYLQMNSLRAEDTAVYYCAKGWFGGFNYWGQGTLVTVSSASTKGPSVFPLAPSSKSTSGGTAALGCLVKDYFPEPVTVSWNSGALTSGVHTFPAVLQSSGLYSLSSVVTVPSSSLGTQTYICNVNHKPSNTKVDKKVEPKSCGGGGSGGGGSEVQLVESGGGLVQPGGSLRLSCAASGFTFSTYAMNWVRQAPGKGLEWVGRIRSKYNNYATYYADSVKGRFTISRDDSKNTLYLQMNSLRAEDTAVYYCVRHGNFGDSYVSWFAYWGQGTLVTVSSGKPGSGKPGSGKPGSGKPGSQAVVTQEPSLTVSPGGTVTLTCGSSTGAVTTSNYANWVQQKPGKSPRGLIGGTNKRAPGVPARFSGSLLGGKAALTISGAQPEDEADYYCALWYSNHWVFGGGTKLTVLGGGGSGGGGSKTHTCPPCPAPPVAGPSVFLFPPKPKDTLMISRTPEVTCVVVDVKHEDPEVKFNWYVDGVEVHNAKTKPREEQYNSTYRVVSVLTVLHQDWLNGKEYKCKVSNKALPAPIEKTISKAKGQPREPQVYTLPPSREQMTKNQVKLTCLVKGFYPSDIAVEWESNGQPENNYKTTPPVLDSDGSFFLYSKLTVDKSRWQQGNVFSCSVMHEALHNHYTQKSLSLSPGK
chain 3: B1 chain 3
With B3, the Kd in the assay with His-tagged human FAP [3] was less than 0.001 nM; with Cyno FAP [4], 0.0229 nM.

For the origin of these results see patent publication US20210253736A1 (published 2021).
